Source: patent US20030175270

B1: human non-receptor tyrosine PTPase TC-PTP (protein)
chain: MPTTIEREFEELDTQRRWQPLYLEIRNESHDYPHRVAKFPENRNRNRYRDVSPYDHSRVKLQNAENDYINASLVDIEEAQRSYILTQGPLPNTCCHFWLMVWQQKTKAVVMLNRIVEKESVKCAQYWPTDDQEMLFKETGFSVKLLSEDVKSYYTVHLLQLENINSGETRTISHFHYTTWPDFGVPESPASFLNFLFKVRESGSLNPDHGPAVIHCSAGIGRSGTFSLVDTCLVLMEKGDDINIKQVLLNMRKYRMGLIQTPDQLRFSYMAIIEGAKCIKGDSSIQKRWKELSKEDLSPAFDHSPNKIMTEKYNGNR
B2: bacterial lambda PTPase (protein)
chain: MRYYEKIDGSKYRNIWVVGDLHGCYTNLMNKLDTIGFDNKKDLLISVGDLVDRGAENVECLELITFPWFRAVRGNHEQMMIDGLSERGNVNHWLLNGGGWFFNLDYDKEILAKALAHKADELPLIIELVSKDKKYVICHADYPFDEYEFGKPVDHQQVIWNRERISNSQNGIVKEIKGADTFIFGHTPAVKPLKFANQMYIDTGAVFCGNLTLIQVQGEGA

Biological target: JAK2 immunoprecipitated from BMMC lysates (tyrosine-phosphorylated), Q62120
Sequence (Q62120 whole entry): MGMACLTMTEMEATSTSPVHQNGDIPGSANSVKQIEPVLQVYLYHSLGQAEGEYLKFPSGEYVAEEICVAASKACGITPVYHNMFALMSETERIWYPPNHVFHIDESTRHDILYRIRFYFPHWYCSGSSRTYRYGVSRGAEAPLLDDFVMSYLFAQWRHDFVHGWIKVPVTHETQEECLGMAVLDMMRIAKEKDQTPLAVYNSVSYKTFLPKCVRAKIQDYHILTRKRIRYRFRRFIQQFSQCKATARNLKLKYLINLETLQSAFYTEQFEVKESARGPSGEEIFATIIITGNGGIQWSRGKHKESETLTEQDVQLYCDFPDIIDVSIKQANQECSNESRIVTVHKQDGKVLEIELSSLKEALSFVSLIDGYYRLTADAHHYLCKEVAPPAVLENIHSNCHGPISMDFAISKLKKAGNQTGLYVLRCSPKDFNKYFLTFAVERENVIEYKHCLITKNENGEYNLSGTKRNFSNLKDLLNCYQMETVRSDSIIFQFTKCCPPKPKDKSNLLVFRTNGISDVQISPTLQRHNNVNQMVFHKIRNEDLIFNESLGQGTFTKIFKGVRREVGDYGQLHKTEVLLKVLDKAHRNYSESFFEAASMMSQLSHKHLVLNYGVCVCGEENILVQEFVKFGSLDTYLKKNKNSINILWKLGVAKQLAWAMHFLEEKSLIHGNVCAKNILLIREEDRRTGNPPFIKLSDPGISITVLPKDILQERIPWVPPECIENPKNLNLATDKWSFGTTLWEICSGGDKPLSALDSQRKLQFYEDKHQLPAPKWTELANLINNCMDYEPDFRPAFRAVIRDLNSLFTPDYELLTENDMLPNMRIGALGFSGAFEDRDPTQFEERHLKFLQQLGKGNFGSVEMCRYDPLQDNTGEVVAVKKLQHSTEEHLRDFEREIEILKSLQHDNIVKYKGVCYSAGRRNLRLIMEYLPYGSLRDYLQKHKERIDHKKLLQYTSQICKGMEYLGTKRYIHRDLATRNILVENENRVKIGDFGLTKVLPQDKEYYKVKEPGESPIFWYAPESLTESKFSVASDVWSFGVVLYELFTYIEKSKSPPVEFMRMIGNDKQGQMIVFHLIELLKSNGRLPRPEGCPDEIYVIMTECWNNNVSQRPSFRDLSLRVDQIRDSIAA

Protein | tyrosine dephosphorylation in vitro (phosphatase assay)
B1 | the human non-receptor tyrosine PTPase TC-PTP and the bacterial lambda PTPase did not dephosphorylate JAK2 in vitro
B2 | the human non-receptor tyrosine PTPase TC-PTP and the bacterial lambda PTPase did not dephosphorylate JAK2 in vitro
